Test results from US20220403009A1 (IGM BIOSCIENCES, published 2022).
Several values for one entry are separate records, joined by “and”; a condition that tells them apart may be missing. Equal values may be shown once. Read-outs that look alike come from different tables or passages of the source.

Key:
[1] = molecular target: T1, SARS-CoV-2 RBD G446V (SARS-CoV-2, UniProt P0DTC2 319-541); assay: BLI, blocking of ACE2-Fc binding to RBD
[2] = molecular target: T2, SARS-CoV-2 RBD E484K (SARS-CoV-2, UniProt P0DTC2 319-541); assay: BLI, blocking of ACE2-Fc binding to RBD
[3] = molecular target: T3, SARS-CoV-2 RBD Y453F (SARS-CoV-2, UniProt P0DTC2 319-541); assay: BLI, blocking of ACE2-Fc binding to RBD
[4] = molecular target: T4, SARS-CoV-2 RBD K417E (SARS-CoV-2, UniProt P0DTC2 319-541); assay: BLI, blocking of ACE2-Fc binding to RBD
[5] = molecular target: T1, SARS-CoV-2 RBD G446V; assay: BLI, RBD on anti-Penta-His sensor
[6] = molecular target: T2, SARS-CoV-2 RBD E484K; assay: BLI, RBD on anti-Penta-His sensor
[7] = molecular target: T3, SARS-CoV-2 RBD Y453F; assay: BLI, RBD on anti-Penta-His sensor
[8] = molecular target: T4, SARS-CoV-2 RBD K417E; assay: BLI, RBD on anti-Penta-His sensor
[9] = molecular target: T1, SARS-CoV-2 RBD G446V; assay: BLI, RBD on anti-Penta-His sensor; remark: listed apart in the source
[10] = molecular target: T2, SARS-CoV-2 RBD E484K; assay: BLI, RBD on anti-Penta-His sensor; remark: listed apart in the source
[11] = molecular target: T3, SARS-CoV-2 RBD Y453F; assay: BLI, RBD on anti-Penta-His sensor; remark: listed apart in the source
[12] = molecular target: T4, SARS-CoV-2 RBD K417E; assay: BLI, RBD on anti-Penta-His sensor; remark: listed apart in the source
[13] = molecular target: T1, SARS-CoV-2 RBD G446V; assay: BLI, blocking of ACE2-Fc binding to RBD; remark: listed apart in the source
[14] = molecular target: T2, SARS-CoV-2 RBD E484K; assay: BLI, blocking of ACE2-Fc binding to RBD; remark: listed apart in the source
[15] = molecular target: T3, SARS-CoV-2 RBD Y453F; assay: BLI, blocking of ACE2-Fc binding to RBD; remark: listed apart in the source
[16] = molecular target: T4, SARS-CoV-2 RBD K417E; assay: BLI, blocking of ACE2-Fc binding to RBD; remark: listed apart in the source
[17] = molecular target: T1, SARS-CoV-2 RBD G446V; assay: BLI, RBD on anti-Penta-His sensor; remark: listed apart in the source
[18] = molecular target: T2, SARS-CoV-2 RBD E484K; assay: BLI, RBD on anti-Penta-His sensor; remark: listed apart in the source
[19] = molecular target: T3, SARS-CoV-2 RBD Y453F; assay: BLI, RBD on anti-Penta-His sensor; remark: listed apart in the source
[20] = molecular target: T4, SARS-CoV-2 RBD K417E; assay: BLI, RBD on anti-Penta-His sensor; remark: listed apart in the source
[21] = molecular target: T1, SARS-CoV-2 RBD G446V; assay: BLI, blocking of ACE2-Fc binding to RBD; remark: listed apart in the source
[22] = molecular target: T2, SARS-CoV-2 RBD E484K; assay: BLI, blocking of ACE2-Fc binding to RBD; remark: listed apart in the source
[23] = molecular target: T3, SARS-CoV-2 RBD Y453F; assay: BLI, blocking of ACE2-Fc binding to RBD; remark: listed apart in the source
[24] = molecular target: T4, SARS-CoV-2 RBD K417E; assay: BLI, blocking of ACE2-Fc binding to RBD; remark: listed apart in the source

Binder	IC50 [1]	IC50 [2]	IC50 [3]	IC50 [4]	Kd [5] [pM]	Kd [6] [pM]	Kd [7] [pM]	Kd [8] [pM]	Kd [9] [pM]	Kd [10] [pM]	Kd [11] [pM]	Kd [12] [pM]	IC50 [13]	IC50 [14]	IC50 [15]	IC50 [16]	Kd [17] [pM]	Kd [19] [pM]	Kd [20] [pM]	IC50 [21]	also measured
Ab8 IgM (antibody) VH: EVQLVESGGGLIQPGGSLRLSCAASGFTVSRNYMNWVRQAPGKGLEWVSVIYSGGSTFYADSVKGRFTISRDNSKNTLYLQMNSLRAEDTAVYYCARDASSYGIDWGQGTLVTVSS VL: not shown not shown	0.78 µg/mL and 0.9 nM	1.3 µg/mL and 1.5 nM	0.98 µg/mL and 1.1 nM	1 µg/mL and 1.2 nM	< 1	< 1	< 1	< 1													
Ab8 IgG (antibody, V domains shown) VH: EVQLVESGGGLIQPGGSLRLSCAASGFTVSRNYMNWVRQAPGKGLEWVSVIYSGGSTFYADSVKGRFTISRDNSKNTLYLQMNSLRAEDTAVYYCARDASSYGIDWGQGTLVTVSS VL: not shown	0.88 µg/mL and 6.1 nM	2.8 µg/mL and 19 nM	1 µg/mL and 7.2 nM	1 µg/mL and 7.2 nM	< 1	< 1	< 1	2000													
Ab10 IgM (antibody) VH: QITLKESGPTLVKPTQTLTLTCTFSGFSLSTSGVGVGWIRQPPGKALEWLALIYWDDDKRYSPSLKSRLTITKDTSKNQVVLTMTNMDPVDTATYYCAHHKIERIFDYWGQGTLVTVSS VL: QSALAQPASVSGSPGQSITISCTGTSSDVGAYNYVSWYQQHPGKAPKLMIYDVSKRPSGVSNRFSGSKSGNTASLTISGLQAEDEADYYCSSYTTSSTVFGGGTKLTVL not shown									110	< 1	< 1	< 1	5 nM and 4.3 µg/mL	0.47 nM and 0.41 µg/mL	0.49 nM and 0.42 µg/mL	0.32 nM and 0.28 µg/mL					
Ab10 IgG (antibody, V domains shown) VH: QITLKESGPTLVKPTQTLTLTCTFSGFSLSTSGVGVGWIRQPPGKALEWLALIYWDDDKRYSPSLKSRLTITKDTSKNQVVLTMTNMDPVDTATYYCAHHKIERIFDYWGQGTLVTVSS VL: QSALAQPASVSGSPGQSITISCTGTSSDVGAYNYVSWYQQHPGKAPKLMIYDVSKRPSGVSNRFSGSKSGNTASLTISGLQAEDEADYYCSSYTTSSTVFGGGTKLTVL									120000	< 1	< 1	< 1	> 69 nM and > 10 µg/mL	10 nM and 1.5 µg/mL	8.6 nM and 1.2 µg/mL	3.8 nM and 0.55 µg/mL					
Ab7 IgM (antibody) VH: EVQLVESGGGLVQPGGSLRLSCAVSGFTVSSNYMSWVRQAPGKGLEWVSVIYTGGGTYYADSVKGRFTISRDNSKNTLYLQMNTLRAEDTTVYYCARGDGSYYRAFDYWGQGTLVTVSS VL: DIQMTQSPSSLSASVGDRVTITCRASQSISNYLNWYHQKPGKAPKLLIYAASSLQSGVPSRFSGSGSGTDFTLTISSLQPEDFATYYCQQSYSPPPTFGPGTKVEIK not shown																	< 1	< 1	< 1	0.32 nM and 0.28 µg/mL	Kd [18]: 7 pM; IC50 [22]: 0.87 nM and 0.76 µg/mL; IC50 [23]: 0.42 nM and 0.36 µg/mL; IC50 [24]: 0.36 nM and 0.31 µg/mL
Ab7 IgG (antibody, V domains shown) VH: EVQLVESGGGLVQPGGSLRLSCAVSGFTVSSNYMSWVRQAPGKGLEWVSVIYTGGGTYYADSVKGRFTISRDNSKNTLYLQMNTLRAEDTTVYYCARGDGSYYRAFDYWGQGTLVTVSS VL: DIQMTQSPSSLSASVGDRVTITCRASQSISNYLNWYHQKPGKAPKLLIYAASSLQSGVPSRFSGSGSGTDFTLTISSLQPEDFATYYCQQSYSPPPTFGPGTKVEIK																	< 1	< 1	< 1	2.1 nM and 0.3 µg/mL	IC50 [22]: > 69 nM and > 10 µg/mL; IC50 [23]: 3.2 nM and 0.46 µg/mL; IC50 [24]: 2.4 nM and 0.35 µg/mL
